Measured values from the supplement of paper PMC9732359.
± gives the uncertainty stated by the source.

Test: protein stability index of a GFP-peptide fusion (yeast GPS) (PSI 1-4); higher = more stable; sorted into four equal gates, so the index is relative within each strain
Procedure, shortened: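 Plasmids in a pooled yeast library fused tiled 17-residue yeast protein peptides downstream of GFP and also expressed Cherry. Mid-log cultures grown without leucine were sorted into four equal gates by GFP/Cherry fluorescence ratio. Each gate's plasmids were PCR-amplified and Illumina-sequenced, and reads were matched to strains by barcodes. The protein stability index is derived by multiplying each gate's read frequency by its gate number and summing the results.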

| Sequence | protein stability index (doa10∆) | protein stability index (pdr5∆) | protein stability index (san1∆) | protein stability index (ubr1∆) |
| --- | --- | --- | --- | --- |
| SPNRLRVRTDDSVLLNR [YML031W/NDC1] | 2.78 ± 0.22 | 3.25 ± 0.21 | 2.99 ± 0.14 | – |
| SPRVEKRSFSSTLKSFF [YOR098C/NUP1] | 1.55 ± 0.067 | 2 ± 0.046 | 2.26 ± 0.078 | 1.92 ± 0.043 |
| SPTYSPTSPAYSPTSPS [RPO21] | 3.08 ± 0.045 | 3.05 ± 0.042 | 3 ± 0.032 | 2.93 ± 0.033 |
| SQEMVPRYFSEAINGFK [SIR3] | 2.99 ± 0.079 | 3.01 ± 0.088 | 3.14 ± 0.058 | 2.94 ± 0.054 |
| SQISKAEMEADSLASEL [SMC4] | 2.75 ± 0.08 | 3.31 ± 0.16 | 3.27 ± 0.071 | 2.82 ± 0.16 |
| SQLGGNKTVNEAAKPSL [YJL041W/NSP1] | 3.36 ± 0.11 | 3.09 ± 0.079 | 2.32 ± 0.17 | 3.26 ± 0.07 |
| SQQLLEILVTELTAQGY [RPN2] | 1.65 ± 0.077 | 2.19 ± 0.079 | 1.93 ± 0.13 | 1.77 ± 0.066 |
| SQTPKVEKTEKPKKPKG [RPS30A] | 3.1 ± 0.07 | 3.12 ± 0.07 | 2.93 ± 0.051 | 2.94 ± 0.047 |
| SQTTTNDSKEESTTEAT [YLR335W/NUP2] | 3.02 ± 0.19 | 2.83 ± 0.21 | 2.97 ± 0.21 | 3.27 ± 0.079 |
| SQVEDFTRIFLPIYDSL [SIR3] | 2.67 ± 0.059 | 2.64 ± 0.045 | 2.49 ± 0.059 | 2.36 ± 0.036 |
| SQVYAIRQAIAKGLVAY [RPS16A] | 2.22 ± 0.069 | 2.35 ± 0.071 | 2.27 ± 0.1 | 2.42 ± 0.055 |
| SRIVEIFALCIYNSTDS [YML103C/NUP188] | 1.2 ± 0.093 | 1.21 ± 0.086 | 1.52 ± 0.11 | 1.2 ± 0.057 |
| SRKRNEEEDAKNPLFSY [RPL31A] | 2.48 ± 0.078 | 2.91 ± 0.059 | 2.58 ± 0.074 | 2.12 ± 0.043 |
| SRLCTPIPVQGEIEIKP [RPN13] | 2.42 ± 0.078 | 2.58 ± 0.067 | 1.7 ± 0.26 | 2.66 ± 0.1 |
| SRNNTLNVTPSKRPQLG [SIR4] | 2.96 ± 0.1 | 2.97 ± 0.093 | 2.8 ± 0.096 | 2.85 ± 0.073 |
| SRRFKNGFQTGSAKATS [RPL37B] | 3.13 ± 0.078 | 3.12 ± 0.087 | 3.37 ± 0.096 | 3.17 ± 0.059 |
| SRSSSKNVNIEDITEPK [ESC2] | 2.92 ± 0.086 | 3 ± 0.082 | 2.67 ± 0.086 | 2.98 ± 0.15 |
| SRTATWLKNKFAEENIT [BRR2] | 1.69 ± 0.052 | 1.73 ± 0.037 | 2.23 ± 0.064 | 1.94 ± 0.053 |
| SRTGPVFDLCWNSLMYA [RRP43] | 2.64 ± 0.06 | 2.45 ± 0.048 | 2.6 ± 0.048 | 2.41 ± 0.032 |
| SSAADITMESVHEWEVS [PRP8] | 3.28 ± 0.062 | 3.32 ± 0.055 | 3.31 ± 0.048 | 3.29 ± 0.046 |
| SSDAFEKLKVNMEKEKD [YIL149C/MLP2] | 3.05 ± 0.071 | 3.19 ± 0.094 | 3.33 ± 0.057 | 3.23 ± 0.062 |
| SSDDLQNCWSLINDSYI [SSN8] | 1.94 ± 0.068 | 2.03 ± 0.081 | 1.53 ± 0.11 | 1.74 ± 0.064 |
| SSDGAYTEQFQHYKNNS [SSN2] | 2.99 ± 0.068 | 3.03 ± 0.056 | 3.02 ± 0.066 | 3.06 ± 0.05 |
| SSEALEAARICANKYMT [RPL10] | 1.35 ± 0.13 | 1.82 ± 0.16 | 1.36 ± 0.19 | 1.29 ± 0.11 |
| SSEIDRENVKSKDEPVS [SIR4] | 3.13 ± 0.15 | 3.33 ± 0.12 | 2.92 ± 0.082 | 3.27 ± 0.086 |
| SSEIKIYYNELQNKPDA [SIR4] | 2.91 ± 0.23 | 3.3 ± 0.14 | 2.46 ± 0.29 | 3.23 ± 0.087 |

| Sequence | protein stability index (doa10∆) | protein stability index (pdr5∆) | protein stability index (san1∆) | protein stability index (ubr1∆) |
| --- | --- | --- | --- | --- |
| SSFYINHASMDVYNREL [BRR2] | 3.02 ± 0.12 | 2.96 ± 0.1 | 3.04 ± 0.076 | 3.17 ± 0.09 |
| SSGAGTVKLYLPEILNV [ECM29] | 1.45 ± 0.065 | 1.72 ± 0.055 | 2.02 ± 0.075 | 1.47 ± 0.066 |
| SSGVLSSNIAGTNPLSS [SSN2] | 3.41 ± 0.13 | 2.9 ± 0.12 | 2.83 ± 0.19 | 3.31 ± 0.088 |
| SSIDKIEDRDFLVRYAC [SIR3] | 2.9 ± 0.17 | – | – | 3.02 ± 0.21 |
| SSIHAIGSIKEDYLGAI [RPB7] | 2.61 ± 0.076 | 2.74 ± 0.064 | 2.71 ± 0.067 | 3.01 ± 0.095 |
| SSIHWNNWFSLPGDMLA [SIN4] | 2.56 ± 0.061 | 1.88 ± 0.055 | 1.71 ± 0.11 | 1.93 ± 0.041 |
| SSKLQLTKKYSFKIFVD [RRP42] | 2.19 ± 0.09 | 1.76 ± 0.062 | 1.76 ± 0.086 | 2.06 ± 0.044 |
| SSKNETSKPVFSFGAAT [YLR335W/NUP2] | 3.12 ± 0.071 | 3.08 ± 0.07 | 2.88 ± 0.063 | 3.06 ± 0.038 |
| SSLIPHCITSITLALAD [MTR3] | 1.28 ± 0.055 | 1.32 ± 0.069 | 1.27 ± 0.17 | 1.3 ± 0.083 |
| SSLPPGEILLPDIADIP [SNF5] | 3.12 ± 0.074 | 3.25 ± 0.063 | 3.19 ± 0.076 | 3.25 ± 0.048 |
| SSLRKNASGNKRSGVIE [ITC1] | 2.96 ± 0.22 | 2.22 ± 0.15 | – | 2.06 ± 0.089 |
| SSQKDGNDFKFNYQGDE [REC8] | 3.41 ± 0.067 | 3.45 ± 0.072 | 3.43 ± 0.051 | 3.4 ± 0.058 |
| SSRFKHRQEIFKDSPMD [GAL11] | 2.71 ± 0.078 | 3.11 ± 0.066 | 3.03 ± 0.059 | 3.01 ± 0.076 |
| SSRPNVNTTRRFQYSDD [YMR129W/POM152] | 2.93 ± 0.14 | 3.16 ± 0.11 | 2.4 ± 0.16 | 2.69 ± 0.088 |
| SSSAQQTKSNGTAGGNT [YJL041W/NSP1] | 3.32 ± 0.12 | 3.46 ± 0.16 | 3.36 ± 0.078 | 3.28 ± 0.085 |
| SSSGNTWSLILNECLKT [YML031W/NDC1] | 1.85 ± 0.066 | 1.73 ± 0.084 | 1.48 ± 0.13 | 1.52 ± 0.061 |
| SSTGGGLFGNKPALGSL [YGR119C/NUP57] | 3.33 ± 0.1 | 3.44 ± 0.088 | 3.4 ± 0.048 | 3.41 ± 0.056 |
| SSTTGMSYVVRILSTLD [RPT3] | 2.31 ± 0.082 | 2.42 ± 0.084 | 2.49 ± 0.053 | 2.91 ± 0.066 |
| SSYMGKHWTEKSLHEMN [PRP28] | 3.23 ± 0.14 | 3.14 ± 0.23 | 3.07 ± 0.19 | – |
| STAFQNTPLSLPTRGTL [COR1] | 2.27 ± 0.05 | 2.38 ± 0.038 | 1.97 ± 0.05 | 2.59 ± 0.035 |
| STDNEAITISNSIDINY [SMC1] | 2.62 ± 0.053 | 2.93 ± 0.057 | 2.67 ± 0.045 | 2.88 ± 0.039 |
| STFQTRRRRLKKVEEEE [RPB4] | 3.33 ± 0.15 | 3.52 ± 0.12 | – | 3.36 ± 0.14 |
| STGGKAPRKQLASKAAR [HHT1] | 2.35 ± 0.23 | 3.35 ± 0.21 | 3.03 ± 0.1 | 3.25 ± 0.21 |
| STKKDTVQLTFLIDVLK [YCG1] | 2.38 ± 0.096 | 2.72 ± 0.068 | 2.47 ± 0.078 | 2.81 ± 0.068 |
| STSFKNPRRLEIKDGRS [YMR153W/NUP53] | 3.06 ± 0.084 | 3.06 ± 0.09 | 2.83 ± 0.085 | 3.16 ± 0.041 |
| STSIQYHGISKNDNIKK [POP6] | 2.79 ± 0.068 | 2.9 ± 0.055 | 2.89 ± 0.043 | 2.92 ± 0.05 |
